Source: US20250171562A1

What was measured:
[1] = biological target: mixture of three Der p 2 specific recombinant human IgE clones H10, H12, P4E (human) (UniProt P01854); assay: RBL-SX38 IgE displacement, FACS
[2] = biological target: IgE on basophils of allergic donors (human) (UniProt P01854); assay: displacement of IgE from FcεRI on basophils, whole blood of an allergic donor, flow cytometry of surface IgE [panel B]
[3] = biological target: IgE on basophils of allergic donors (human) (UniProt P01854); assay: displacement of IgE from FcεRI on basophils, whole blood of an allergic donor, flow cytometry of surface IgE [panel C]

Sequence of IgE on basophils of allergic donors (human) (P01854 1-428): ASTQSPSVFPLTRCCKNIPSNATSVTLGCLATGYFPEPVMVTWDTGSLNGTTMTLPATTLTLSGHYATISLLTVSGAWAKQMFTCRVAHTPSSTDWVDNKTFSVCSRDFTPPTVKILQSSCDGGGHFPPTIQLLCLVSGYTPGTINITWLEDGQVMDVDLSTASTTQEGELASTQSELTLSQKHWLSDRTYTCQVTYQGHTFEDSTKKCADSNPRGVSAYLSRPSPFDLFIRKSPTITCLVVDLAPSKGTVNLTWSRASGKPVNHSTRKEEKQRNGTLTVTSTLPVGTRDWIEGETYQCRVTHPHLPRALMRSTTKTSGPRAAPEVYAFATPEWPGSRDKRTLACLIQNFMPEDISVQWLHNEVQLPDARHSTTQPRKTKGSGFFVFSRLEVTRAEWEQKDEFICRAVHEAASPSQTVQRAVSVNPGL
Sequence of mixture of three Der p 2 specific recombinant human IgE clones H10, H12, P4E (human) (P01854 other isoform, or with tags, fused parts or gaps): as the sequence (P01854 1-428) above, with L428K counted along it

Binder	EC50 [1] [nM]	Max effect/effect 1 µM [1] [%]	EC50 (read off the curve) [2] [nM]	EC50 (read off the curve) [3] [nM]
CIgG4B1A1(G4S)1 (Fc fusion) chain 1: GPPCPPCPAPEFLGGPSVFLFPPKPKDTLMISRTPEVTCVVVDVSQEDPEVQFNWYVDGVEVHNAKTKPREEQFNSTYRVVSVLTVLHQDWLNGKEYKCKVSNKGLPSSIEKTISKAKGQPREPQVYTLPPCQEEMTKNQVSLWCLVKGFYPSDIAVEWESNGQPENNYKTTPPVLDSDGSFFLYSRLTVDKSRWQEGNVFSCSVMHEALHNHYTQKSLSLSLGKGGGGSQVQLQESGGGLVQTGGSLRLSCAVHGRTFSNTGMGWFRQAPGNERQFVAIISPSGTSTYYADSVKGRFTISRDPAKNTVYLQMNSLKMDDTAVYYCAASYGSNWSTLRHQRRNEYDAWGQGTQVAVS chain 2: GPPCPPCPAPEFLGGPSVFLFPPKPKDTLMISRTPEVTCVVVDVSQEDPEVQFNWYVDGVEVHNAKTKPREEQFNSTYRVVSVLTVLHQDWLNGKEYKCKVSNKGLPSSIEKTISKAKGQPREPQVCTLPPSQEEMTKNQVSLSCAVKGFYPSDIAVEWESNGQPENNYKTTPPVLDSDGSFFLVSRLTVDKSRWQEGNVFSCSVMHEALHNHYTQKSLSLSLGKGGGGSEVQLLESGGGLVQPGGSLRLSCAASGFTFGNYDMAWVRQAPGKRPEWVSSIDTGGDITHYADSVKGRFTISRDNAKNTLYLQMNSLRPEDTAVYWCATDEEYALGPNEFDYYGQGTLVTVSS	22.4	99	4	4
CIgG4F6A1(G4S)1 (Fc fusion) chain 1: GPPCPPCPAPEFLGGPSVFLFPPKPKDTLMISRTPEVTCVVVDVSQEDPEVQFNWYVDGVEVHNAKTKPREEQFNSTYRVVSVLTVLHQDWLNGKEYKCKVSNKGLPSSIEKTISKAKGQPREPQVYTLPPCQEEMTKNQVSLWCLVKGFYPSDIAVEWESNGQPENNYKTTPPVLDSDGSFFLYSRLTVDKSRWQEGNVFSCSVMHEALHNHYTQKSLSLSLGKGGGGSDVQLQESGGGLVQAGGSLRLSCAASGLTFGSYDMGWYRQAPGKQRELVGRIRNDGITYYADSVKGRFTMSRDNAKNTVYLQMNSLKPEDTAVYYCAADGTGLGHYDYWGQGTQVTVS chain 2: GPPCPPCPAPEFLGGPSVFLFPPKPKDTLMISRTPEVTCVVVDVSQEDPEVQFNWYVDGVEVHNAKTKPREEQFNSTYRVVSVLTVLHQDWLNGKEYKCKVSNKGLPSSIEKTISKAKGQPREPQVCTLPPSQEEMTKNQVSLSCAVKGFYPSDIAVEWESNGQPENNYKTTPPVLDSDGSFFLVSRLTVDKSRWQEGNVFSCSVMHEALHNHYTQKSLSLSLGKGGGGSEVQLLESGGGLVQPGGSLRLSCAASGFTFGNYDMAWVRQAPGKRPEWVSSIDTGGDITHYADSVKGRFTISRDNAKNTLYLQMNSLRPEDTAVYWCATDEEYALGPNEFDYYGQGTLVTVSS	59.9	95		
CIgG4B1A1(RS) (Fc fusion) chain 1: GPPCPPCPAPEFLGGPSVFLFPPKPKDTLMISRTPEVTCVVVDVSQEDPEVQFNWYVDGVEVHNAKTKPREEQFNSTYRVVSVLTVLHQDWLNGKEYKCKVSNKGLPSSIEKTISKAKGQPREPQVYTLPPCQEEMTKNQVSLWCLVKGFYPSDIAVEWESNGQPENNYKTTPPVLDSDGSFFLYSRLTVDKSRWQEGNVFSCSVMHEALHNHYTQKSLSLSLGKRSQVQLQESGGGLVQTGGSLRLSCAVHGRTFSNTGMGWFRQAPGNERQFVAIISPSGTSTYYADSVKGRFTISRDPAKNTVYLQMNSLKMDDTAVYYCAASYGSNWSTLRHQRRNEYDAWGQGTQVAVS chain 2: GPPCPPCPAPEFLGGPSVFLFPPKPKDTLMISRTPEVTCVVVDVSQEDPEVQFNWYVDGVEVHNAKTKPREEQFNSTYRVVSVLTVLHQDWLNGKEYKCKVSNKGLPSSIEKTISKAKGQPREPQVCTLPPSQEEMTKNQVSLSCAVKGFYPSDIAVEWESNGQPENNYKTTPPVLDSDGSFFLVSRLTVDKSRWQEGNVFSCSVMHEALHNHYTQKSLSLSLGKRSEVQLLESGGGLVQPGGSLRLSCAASGFTFGNYDMAWVRQAPGKRPEWVSSIDTGGDITHYADSVKGRFTISRDNAKNTLYLQMNSLRPEDTAVYWCATDEEYALGPNEFDYYGQGTLVTVSS	84.9	92	10	20
CIgG4F6A1(RS) (Fc fusion) chain 1: GPPCPPCPAPEFLGGPSVFLFPPKPKDTLMISRTPEVTCVVVDVSQEDPEVQFNWYVDGVEVHNAKTKPREEQFNSTYRVVSVLTVLHQDWLNGKEYKCKVSNKGLPSSIEKTISKAKGQPREPQVYTLPPCQEEMTKNQVSLWCLVKGFYPSDIAVEWESNGQPENNYKTTPPVLDSDGSFFLYSRLTVDKSRWQEGNVFSCSVMHEALHNHYTQKSLSLSLGKRSDVQLQESGGGLVQAGGSLRLSCAASGLTFGSYDMGWYRQAPGKQRELVGRIRNDGITYYADSVKGRFTMSRDNAKNTVYLQMNSLKPEDTAVYYCAADGTGLGHYDYWGQGTQVTVS chain 2: GPPCPPCPAPEFLGGPSVFLFPPKPKDTLMISRTPEVTCVVVDVSQEDPEVQFNWYVDGVEVHNAKTKPREEQFNSTYRVVSVLTVLHQDWLNGKEYKCKVSNKGLPSSIEKTISKAKGQPREPQVCTLPPSQEEMTKNQVSLSCAVKGFYPSDIAVEWESNGQPENNYKTTPPVLDSDGSFFLVSRLTVDKSRWQEGNVFSCSVMHEALHNHYTQKSLSLSLGKRSEVQLLESGGGLVQPGGSLRLSCAASGFTFGNYDMAWVRQAPGKRPEWVSSIDTGGDITHYADSVKGRFTISRDNAKNTLYLQMNSLRPEDTAVYWCATDEEYALGPNEFDYYGQGTLVTVSS		96		
CIgG4F6A1(G4S)2 (Fc fusion) chain 1: GPPCPPCPAPEFLGGPSVFLFPPKPKDTLMISRTPEVTCVVVDVSQEDPEVQFNWYVDGVEVHNAKTKPREEQFNSTYRVVSVLTVLHQDWLNGKEYKCKVSNKGLPSSIEKTISKAKGQPREPQVYTLPPCQEEMTKNQVSLWCLVKGFYPSDIAVEWESNGQPENNYKTTPPVLDSDGSFFLYSRLTVDKSRWQEGNVFSCSVMHEALHNHYTQKSLSLSLGKGGGGSGGGGSDVQLQESGGGLVQAGGSLRLSCAASGLTFGSYDMGWYRQAPGKQRELVGRIRNDGITYYADSVKGRFTMSRDNAKNTVYLQMNSLKPEDTAVYYCAADGTGLGHYDYWGQGTQVTVS chain 2: GPPCPPCPAPEFLGGPSVFLFPPKPKDTLMISRTPEVTCVVVDVSQEDPEVQFNWYVDGVEVHNAKTKPREEQFNSTYRVVSVLTVLHQDWLNGKEYKCKVSNKGLPSSIEKTISKAKGQPREPQVCTLPPSQEEMTKNQVSLSCAVKGFYPSDIAVEWESNGQPENNYKTTPPVLDSDGSFFLVSRLTVDKSRWQEGNVFSCSVMHEALHNHYTQKSLSLSLGKGGGGSGGGGSEVQLLESGGGLVQPGGSLRLSCAASGFTFGNYDMAWVRQAPGKRPEWVSSIDTGGDITHYADSVKGRFTISRDNAKNTLYLQMNSLRPEDTAVYWCATDEEYALGPNEFDYYGQGTLVTVSS	16.6	98		

Now from value to binder:

EC50 [1] [nM]	Max effect/effect 1 µM [1] [%]	EC50 (read off the curve) [2] [nM]	EC50 (read off the curve) [3] [nM]	Binder
3	99	4	3	NIgG4B1A1(G4S)1 (Fc fusion) chain 1: QVQLQESGGGLVQTGGSLRLSCAVHGRTFSNTGMGWFRQAPGNERQFVAIISPSGTSTYYADSVKGRFTISRDPAKNTVYLQMNSLKMDDTAVYYCAASYGSNWSTLRHQRRNEYDAWGQGTQVAVSGGGGSGPPCPPCPAPEFLGGPSVFLFPPKPKDTLMISRTPEVTCVVVDVSQEDPEVQFNWYVDGVEVHNAKTKPREEQFNSTYRVVSVLTVLHQDWLNGKEYKCKVSNKGLPSSIEKTISKAKGQPREPQVYTLPPCQEEMTKNQVSLWCLVKGFYPSDIAVEWESNGQPENNYKTTPPVLDSDGSFFLYSRLTVDKSRWQEGNVFSCSVMHEALHNHYTQKSLSLSLGK chain 2: EVQLLESGGGLVQPGGSLRLSCAASGFTFGNYDMAWVRQAPGKRPEWVSSIDTGGDITHYADSVKGRFTISRDNAKNTLYLQMNSLRPEDTAVYWCATDEEYALGPNEFDYYGQGTLVTVSSGGGGSGPPCPPCPAPEFLGGPSVFLFPPKPKDTLMISRTPEVTCVVVDVSQEDPEVQFNWYVDGVEVHNAKTKPREEQFNSTYRVVSVLTVLHQDWLNGKEYKCKVSNKGLPSSIEKTISKAKGQPREPQVCTLPPSQEEMTKNQVSLSCAVKGFYPSDIAVEWESNGQPENNYKTTPPVLDSDGSFFLVSRLTVDKSRWQEGNVFSCSVMHEALHNHYTQKSLSLSLGK
7.9	90			CIgG4F6A1(G4S)3 (Fc fusion) chain 1: GPPCPPCPAPEFLGGPSVFLFPPKPKDTLMISRTPEVTCVVVDVSQEDPEVQFNWYVDGVEVHNAKTKPREEQFNSTYRVVSVLTVLHQDWLNGKEYKCKVSNKGLPSSIEKTISKAKGQPREPQVYTLPPCQEEMTKNQVSLWCLVKGFYPSDIAVEWESNGQPENNYKTTPPVLDSDGSFFLYSRLTVDKSRWQEGNVFSCSVMHEALHNHYTQKSLSLSLGKGGGGSGGGGSGGGGSDVQLQESGGGLVQAGGSLRLSCAASGLTFGSYDMGWYRQAPGKQRELVGRIRNDGITYYADSVKGRFTMSRDNAKNTVYLQMNSLKPEDTAVYYCAADGTGLGHYDYWGQGTQVTVS chain 2: GPPCPPCPAPEFLGGPSVFLFPPKPKDTLMISRTPEVTCVVVDVSQEDPEVQFNWYVDGVEVHNAKTKPREEQFNSTYRVVSVLTVLHQDWLNGKEYKCKVSNKGLPSSIEKTISKAKGQPREPQVCTLPPSQEEMTKNQVSLSCAVKGFYPSDIAVEWESNGQPENNYKTTPPVLDSDGSFFLVSRLTVDKSRWQEGNVFSCSVMHEALHNHYTQKSLSLSLGKGGGGSGGGGSGGGGSEVQLLESGGGLVQPGGSLRLSCAASGFTFGNYDMAWVRQAPGKRPEWVSSIDTGGDITHYADSVKGRFTISRDNAKNTLYLQMNSLRPEDTAVYWCATDEEYALGPNEFDYYGQGTLVTVSS
2.7	87			NIgG4F6A1(G4S)3 (Fc fusion) chain 1: DVQLQESGGGLVQAGGSLRLSCAASGLTFGSYDMGWYRQAPGKQRELVGRIRNDGITYYADSVKGRFTMSRDNAKNTVYLQMNSLKPEDTAVYYCAADGTGLGHYDYWGQGTQVTVSGGGGSGGGGSGGGGSGPPCPPCPAPEFLGGPSVFLFPPKPKDTLMISRTPEVTCVVVDVSQEDPEVQFNWYVDGVEVHNAKTKPREEQFNSTYRVVSVLTVLHQDWLNGKEYKCKVSNKGLPSSIEKTISKAKGQPREPQVYTLPPCQEEMTKNQVSLWCLVKGFYPSDIAVEWESNGQPENNYKTTPPVLDSDGSFFLYSRLTVDKSRWQEGNVFSCSVMHEALHNHYTQKSLSLSLGK chain 2: EVQLLESGGGLVQPGGSLRLSCAASGFTFGNYDMAWVRQAPGKRPEWVSSIDTGGDITHYADSVKGRFTISRDNAKNTLYLQMNSLRPEDTAVYWCATDEEYALGPNEFDYYGQGTLVTVSSGGGGSGGGGSGGGGSGPPCPPCPAPEFLGGPSVFLFPPKPKDTLMISRTPEVTCVVVDVSQEDPEVQFNWYVDGVEVHNAKTKPREEQFNSTYRVVSVLTVLHQDWLNGKEYKCKVSNKGLPSSIEKTISKAKGQPREPQVCTLPPSQEEMTKNQVSLSCAVKGFYPSDIAVEWESNGQPENNYKTTPPVLDSDGSFFLVSRLTVDKSRWQEGNVFSCSVMHEALHNHYTQKSLSLSLGK
